From the supplement of paper PMC7125110
± gives the standard error. Variants at the floor of the assay were thinned out.

B1: glmS ribozyme (parent)
chain: AUAAAAGCGCCAGAACUACAGAAAUGUAGUUGACGAGGAGGAGGUUUAUCGAAUUUUCGGCGGAUGCCUCCAAA

Columns and labels:
Settings in all cases: with glucosamine-6-phosphate
glucosamine-6-phosphate [1] = variants of: B1; assay: self-cleavage kobs at 40 uM GlcN6P; higher = faster cleavage; RNA array
Method in brief: (§1)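 Glucosamine-6-phosphate, from 40 μM to 10 mM in HEPES/KCl/Mg(OAc)2 buffer, was flowed over sequenced MiSeq chips carrying barcoded ribozyme variants transcribed in situ by E. coli RNA polymerase. A hybridised Cy3 probe tracked the variants at 37 °C as tiles were imaged over ~14 h. kobs, kcat and KM were obtained by fitting normalised per-tile medians to exponential decays and then applying weighted Michaelis–Menten fits across concentrations.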

glucosamine-6-phosphate [2] = variants of: B1; assay: self-cleavage kobs at 160 uM GlcN6P; higher = faster cleavage; RNA array
Method in brief: as §1

glucosamine-6-phosphate [3] = variants of: B1; assay: self-cleavage kobs at 640 uM GlcN6P; higher = faster cleavage; RNA array
Method in brief: as §1

glucosamine-6-phosphate [4] = variants of: B1; assay: self-cleavage kobs at 2500 uM GlcN6P; higher = faster cleavage; RNA array
Method in brief: as §1

glucosamine-6-phosphate [5] = variants of: B1; assay: self-cleavage kobs at 10000 uM GlcN6P; higher = faster cleavage; RNA array
Method in brief: as §1

Variant | self-cleavage kobs at 40 uM GlcN6P (glucosamine-6-phosphate [1]) [s⁻¹] | self-cleavage kobs at 160 uM GlcN6P (glucosamine-6-phosphate [2]) [s⁻¹] | self-cleavage kobs at 640 uM GlcN6P (glucosamine-6-phosphate [3]) [s⁻¹] | self-cleavage kobs at 2500 uM GlcN6P (glucosamine-6-phosphate [4]) [s⁻¹] | self-cleavage kobs at 10000 uM GlcN6P (glucosamine-6-phosphate [5]) [s⁻¹]
AUAAAAGCGCCAGAACUACAGAAAUGUAGUUGACGAGGAGGAGGUUUAUCGAAAUUUCGGCGGAUGACUCCAAA | 0.000554 ± 0.00013 | 0.000242 ± 4.9e-05 | 0.00148 ± 0.00034 | 0.00137 ± 0.00037 | 0.00561 ± 0.0016
AUAAAAGCGCCAGAACUACAGAAAUGUAGUUGACGAGGAGGAGGUUUAUCUAAUUUUCGGCGCAUGCCUCCAAA | < 1e-05 | – | < 1e-05 | < 1e-05 | < 1e-05
AUAAAAGCGCCAGAACUACAGAAAUGUAGUUGACGAGGAGGAGGUUUAUCGACUUUUCGGCGUAUGGCGCCAAA | < 1e-05 | – | – | – | –
AUAAAAGCGCCAGAACUACAGAAAUGUAGUUGACGAGGAGGAGGUUUAUCGGAUUUUCGGUGGAUGCCUCCAAA | < 1e-05 | < 1e-05 | – | < 1e-05 | –
AUAAAAGCGCCAGAACUACAGAAAUGUAGUUGACGAGGAGGAGGUUUAUCGAUGUUUCGGCGGAUGCCUCAAAA | 9.49e-05 ± 2.8e-05 | – | – | – | 0.00478 ± 0.0013
AUAAAAGCGCCAGAACUACAGAAAUGUAGUUGACGAGGAGGAGGUUUAUCGAUUUUUCGGCGGAUGGCUCCAAA | 3.3e-05 ± 8.7e-06 | 7.53e-05 ± 2e-05 | 0.000519 ± 0.00012 | 0.000628 ± 0.0001 | 0.00224 ± 0.00024
AUAAAAGCGCCAGAACUACAGAAAUGUAGUUGACGAGGAGGAGGUUUAUCGAAGUUUCGGCGGAUGACUCCAAA | 0.000326 ± 7.1e-05 | 0.000481 ± 9.8e-05 | 0.000916 ± 0.00018 | 0.00208 ± 0.00067 | 0.00623 ± 0.0012
AUAAAAGCGCCAGAACUACAGAAAUGUAGUUGACGAGGAGGAGGUUUAUCGAGUUUUCGGCGGAUGCCCCCAAA | 0.000897 ± 0.00014 | 0.000469 ± 8.4e-05 | 0.00235 ± 0.00048 | 0.002 ± 0.00044 | 0.00674 ± 0.0018
AUAAAAGCGCCAGAACUACAGAAAUGUAGUUGACGAGGAGGAGGUUUAUCGAAGUUUCGGCGGAUGCCUCAAAA | 0.00016 ± 3.2e-05 | – | – | 0.00157 ± 0.00049 | 0.00496 ± 0.001
AUAAAAGCGCCAGAACUACAGAAAUGUAGUUGACGAGGAGGAGGUUUAUCUAAUUUUCGGCUGAUGCCUCCAAA | < 1e-05 | < 1e-05 | – | – | < 1e-05
AUAAAAGCGCCAGAACUACAGAAAUGUAGUUGACGAGGAGGAGGUUUAUCGAUUUUUCGGUGGAUGCCUCCAAA | < 1e-05 | < 1e-05 | – | – | –
AUAAAAGCGCCAGAACUACAGAAAUGUAGUUGACGAGGAGGAGGUUUAUCGAUCUUUCGGCGGAUGACUCCAAA | 0.000138 ± 2.9e-05 | – | – | – | 0.00429 ± 0.0016
AUAAAAGCGCCAGAACUACAGAAAUGUAGUUGACGAGGAGGAGGUUUAUCGAGUUUUCGUCGGAUGCCUCCAAA | < 1e-05 | < 1e-05 | < 1e-05 | – | –
AUAAAAGCGCCAGAACUACAGAAAUGUAGUUGACGAGGAGGAGGUUUAUCGCAUUUUCGACGGAUACCUCCAAA | < 1e-05 | < 1e-05 | < 1e-05 | – | –
AUAAAAGCGCCAGAACUACAGAAAUGUAGUUGACGAGGAGGAGGUUUAUCGACUUUUCGGCUGAUGCCUCCAAA | < 1e-05 | < 1e-05 | – | < 1e-05 | < 1e-05
AUAAAAGCGCCAGAACUACAGAAAUGUAGUUGACGAGGAGGAGGUUUAUCGAAAUUUCGGCGGAUGCCUCAAAA | 0.000351 ± 6.3e-05 | 0.000583 ± 8.5e-05 | 0.000818 ± 0.00011 | 0.00847 ± 0.0023 | 0.0109 ± 0.0026
AUAAAAGCGCCAGAACUACAGAAAUGUAGUUGACGAGGAGGAGGUUUAUCGUAUUUUUGGCGGAUGCCUCCAAA | < 1e-05 | < 1e-05 | < 1e-05 | < 1e-05 | < 1e-05
AUAAAAGCGCCAGAACUACAGAAAUGUAGUUGACGAGGAGGAGGUUUAUCGAGUUUUCGGCGGAUGCCUUCAAA | 0.00158 ± 0.00015 | 0.00129 ± 0.00027 | 0.0139 ± 0.0036 | – | 0.0616 ± 0.014
AUAAAAGCGCCAGAACUACAGAAAUGUAGUUGACGAGGAGGAGGUUUAUCGAAAUUUCGGCGGAUGCUUCCAAA | 0.000391 ± 6.1e-05 | 0.000218 ± 4.6e-05 | 0.000767 ± 0.00017 | 0.000405 ± 0.00011 | –
AUAAAAGCGCCAGAACUACAGAAAUGUAGUUGACGAGGAGGAGGUUUAUCGAUUUUUCGGCGGAUGCCCCCAAA | 0.000317 ± 6.8e-05 | 0.000141 ± 5.3e-05 | 0.00104 ± 0.0003 | – | 0.00288 ± 0.00074
AUAAAAGCGCCAGAACUACAGAAAUGUAGUUGACGAGGAGGAGGUUUAUCGAAAUUUCGGUAGAUGCCUCCAAA | < 1e-05 | – | < 1e-05 | – | < 1e-05
